Measurements from patent US20230068783A1 (TAVOTEK BIOTHERAPEUTICS HONG KONG, published 2023).
Numbering of substitutions follows the chain as printed.

T1: mouse IL-1β (mouse, UniProt P10749 118-269)
T1 sequence (looked up): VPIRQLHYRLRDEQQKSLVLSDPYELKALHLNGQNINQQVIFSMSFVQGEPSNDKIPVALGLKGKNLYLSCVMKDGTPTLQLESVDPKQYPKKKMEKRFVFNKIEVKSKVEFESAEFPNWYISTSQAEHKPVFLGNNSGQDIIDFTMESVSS

T2: IL-1β receptor IL-1R on the surface of HEK-Blue IL-1β cells (UniProt P14778 18-569, limits assumed)
T2 sequence (looked up): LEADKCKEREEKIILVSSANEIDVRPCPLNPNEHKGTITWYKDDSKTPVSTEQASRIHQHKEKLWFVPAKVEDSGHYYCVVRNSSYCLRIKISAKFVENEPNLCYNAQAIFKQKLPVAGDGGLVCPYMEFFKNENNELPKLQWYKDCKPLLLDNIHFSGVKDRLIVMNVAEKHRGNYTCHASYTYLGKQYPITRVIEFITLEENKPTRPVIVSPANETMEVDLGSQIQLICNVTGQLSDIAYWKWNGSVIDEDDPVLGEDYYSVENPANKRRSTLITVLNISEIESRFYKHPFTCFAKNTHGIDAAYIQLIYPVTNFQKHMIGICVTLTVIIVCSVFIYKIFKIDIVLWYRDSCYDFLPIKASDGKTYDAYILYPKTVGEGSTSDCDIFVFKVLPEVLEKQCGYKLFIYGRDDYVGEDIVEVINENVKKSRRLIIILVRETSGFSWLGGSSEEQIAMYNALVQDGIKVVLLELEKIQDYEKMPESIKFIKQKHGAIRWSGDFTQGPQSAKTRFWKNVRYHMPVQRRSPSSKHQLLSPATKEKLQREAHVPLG

T3: human IL-1α (human, UniProt P01583 113-271)
T3 construct: Purified recombinant protein
T3 sequence (looked up): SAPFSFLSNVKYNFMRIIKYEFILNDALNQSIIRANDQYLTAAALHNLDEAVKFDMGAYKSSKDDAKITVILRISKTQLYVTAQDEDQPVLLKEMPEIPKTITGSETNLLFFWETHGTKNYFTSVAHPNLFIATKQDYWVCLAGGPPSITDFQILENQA

B1: mouse monoclonal anti-human IL-1β antibody TAVO304 (antibody, V domains shown)
VH: DVQLVESGGGLVQPGGSRKLSCAASGFTFSSFGMHWVRQAPEKGLEWVAYISIGSYTVHYADTVKGRFTISRDNPKNTLFLQMTSLRSEDTAMYYCVRDDYDVTDYTMDYWGQGTSVTVSS
VL: DIVMSQSPSSLAVSTGEKVTMSCKSSQSLLNSRTRKNYLAWYQQKPGQSPKLLIYWASTRESGVPDRFTGSGSGTDFTLTIGSVQAEDLAVYYCKQTYNFPTFGGGTKLEIK
notes: Mouse monoclonal antibody from hybridoma screening
B2: Rhesus monkey IL-1β (ligand, UniProt P48090 117-269, looked up)
chain: APVRSLHCTLRDAQLKSLVMSGPYELKALHLQGQDLEQQVVFSMSFVQGEESNDKIPVALGLKAKNLYLSCVLKDDKPTLQLESVDPKNYPKKKMEKRFVFNKIEINNKLEFESAQFPNWYISTSQAENMPVFLGGTRGGQDITDFTMQFVSS
B3: TAVO7376 (humanized IgG1 antibody, 304VH1 with 304VL1) (antibody, V domains shown)
VH: EVQLVESGGGLVQPGGSLRLSCAASGFTFSSFGMHWVRQAPGKGLEWVAYISIGSYTVHYADSVKGRFTISRDNAKNSLYLQMNSLRDEDTAVYYCVRDDYDVTDYTMDYWGQGTTVTVSS
VL: DIQMTQSPSSLSASVGDRVTITCKSSQSLLNSRTRKNYLAWYQQKPGKAPKLLIYWASTRESGVPSRFSGSGSGTDFTLTISSLQPEDFATYYCKQTYNFPTFGQGTKLEIKR
notes: Humanized IgG1
B4: TAVO7377 (humanized IgG1 antibody, 304VH1 with 304VL2) (antibody, V domains shown)
VH: B3 VH
VL: B3 VL with I21M, L84V, F89L
notes: Humanized IgG1

Tests used:
[1] = target: T4, recombinant human IL-1β (R&D systems) (human, UniProt P01584 117-269); test: cell-based or functional assay
[2] = target: B2; test: cell-based or functional assay
[3] = target: T1, mouse IL-1β; test: ELISA, plate coated with mouse IL-1β
Procedure: (§1) By hybridoma screening, TAVO304 was identified as a mouse anti-human IL-1β antibody. ELISA-based binding assay was employed to evaluate TAVO304 binding to recombinant human IL-1β. In this assay, 1 μg/ml recombinant human IL-1β (R&D systems) were coated on ELISA plate. Increasing concentrations of TAVO304 antibodies were applied on the plate and their binding to the recombinant human IL-1P were detected by HRP-conjugated anti-mouse secondary antibody.
(§2) The binding of TAVO304 to mouse and Rhesus monkey IL-1β were also evaluated in similar ELISA assay by coating the plate with mouse and Rhesus monkey IL-1β respectively.

[4] = target: B2; test: ELISA, plate coated with Rhesus monkey IL-1β
Procedure: as §1, §2

[5] = target: T4, recombinant human IL-1β (R&D systems); test: ELISA, 1 µg/ml recombinant human IL-1β coated, HRP anti-mouse secondary antibody
Procedure: as §1

[6] = target: T2, IL-1β receptor IL-1R on the surface of …; test: cell-based or functional assay
[7] = target: T3, human IL-1α; test: ELISA with purified recombinant protein
Procedure: To evaluate the binding specificity, cytokines homologous to IL-1β such as IL-1α were evaluated for binding to humanized antibodies in ELISA-based binding assay with purified recombinant protein.

Binder | IC50 of neutralizing human IL-1β driven reporter gene expression, HEK-Blue IL-1β reporter assay [1] [µg/mL] | fold potency against reference antibody refAb-1 in IL-1β inhibition, HEK-Blue IL-1β reporter assay [1] [fold] | IC50 of neutralizing rhesus monkey IL-1β driven reporter gene expression, HEK-Blue IL-1β reporter assay [2] [µg/mL] | binding result [3] | EC50 [4] [µg/mL] | EC50 [5] [µg/mL] | EC50 of reporter gene (SEAP) expression in HEK-Blue IL-1β reporter assay [6] [µg/mL] | IC50 of blocking human IL-1β-mediated IL-6 release from MRC-5 cells [1] [µg/mL] | binding result [7]
B1 | 0.12 | > 6 | 0.0036 | no binding | 0.0122 | 0.0036 | – | – | –
B2 | – | – | – | – | – | – | 0.00016 | – | –
B3 | ~0.09 | – | ~0.018 | – | – | – | – | ~0.05 | no binding (tested: 1 ug/mL)
B4 | ~0.09 | – | ~0.018 | – | – | – | – | ~0.05 | no binding (tested: 1 ug/mL)
